Assays:
Assay in all cases: ELISA, gp120 on plate
CH505 M11 gp120 (HIV-1) = target: CH505 M11 gp120 (HIV-1)
CH505 M5 gp120 (HIV-1) = target: CH505 M5 gp120 (HIV-1)
[1] = target: CH505 transmitted/founder (TF) gp120 (HIV-1)
[2] = target: CH505 w020.14 gp120 (HIV-1)
[3] = target: CH505 w030.28 gp120 (HIV-1)
[4] = target: CH505 w078.15 gp120 (HIV-1)

| Substance | log AUC (CH505 M11 gp120 (HIV-1)) [log AUC] | log AUC (CH505 M5 gp120 (HIV-1)) [log AUC] | log AUC [1] [log AUC] | log AUC [2] [log AUC] | log AUC [3] [log AUC] | log AUC [4] [log AUC] |
| --- | --- | --- | --- | --- | --- | --- |
| CH103 lineage intermediate ancestor IA7 (antibody) | 10.1 | 2.3 | 9.2 | 7.2 | 3.5 | 0.7 |
| CH103 lineage intermediate ancestor IA8 (antibody) | 6.2 | 0.6 | 5.5 | 3.4 | 1.6 | – |

From patent publication US20230140293A1
